Data taken from the supplement of paper PMC7877785.
± gives the uncertainty stated by the source.

Experiment: self-splicing fitness, log relative to wild type (ln ratio); higher = more splicing; Tetrahymena group I intron in knt gene, E. coli kanamycin selection, DiMSum; sequences stand for … in CUCUCU…GGAGGGAAAAGUUAUCAGGCAUGCACCUGGUAGCUAGUCUUUAAACCAAUAGAUUGCAUCGGUUUAAAAGGCAAGACCGUCAAAUUGCGGGAAAGGGGUCAACAGCCGUUCAGUACCAAGUCUCAGGGGAAACUUUGAGAUGGCCUUGCAAAGGGUAUGGUAAUAAGCUGACGGACAUGGUCCUAACCACGCAGCCAAGUCCUAAGUCAACAGAUCUUCUGUUGAUAUGGAUGCAGUUCACAGACUAAAUGUCGGUCGGGGAAGAUGUAUUCUUCUCAUAAGAUAUAGUCGGACCUCUCCUUAAUGGGAGCUAGCGGAUGAAGUGAUGCAACACUGGAGCCGCUGGGAACUAAUUUGUAUGCGAAAGUAUAUUGAUUAGUUUUGGAGUACUCGUGGUCG
Method in brief: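 Library with all eight P1ex-region intron nucleotides randomised, intron inside the knt kanamycin-resistance gene on pET-22b(+), in E. coli BL21(DE3). Cells grew overnight at 37°C or 30°C on LB agar with or without 25 μg/mL kanamycin (plus 100 μg/mL carbenicillin, 50 μM IPTG, 0.2% rhamnose), in six replicate transformations. Pooled colonies were amplicon-sequenced on Illumina HiSeq 2500. DiMSum fitness is the error-weighted combination of wild-type-normalised replicate fold changes, kanamycin versus none.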

Sequence | self-splicing fitness (ln) (30 °C) | self-splicing fitness (ln) (37 °C)
GUUUAGCAAUAUUACGCAGU | -2.92 ± 0.17 | -2.05 ± 0.22
GUUUAGCAAUAUUACGCGAU | -3.12 ± 0.4 | -2.42 ± 0.42
GUUUAGCAAUAUUACGCGCU | -1.52 ± 0.29 | -0.397 ± 0.44
GUUUAGCAAUAUUACGCGUA | -0.947 ± 0.14 | -0.606 ± 0.15
GUUUAGCAAUAUUACGGUAU | -2.05 ± 0.14 | 0.286 ± 0.15
GUUUAGCAAUAUUACGGUCU | -1.44 ± 0.12 | -1.05 ± 0.13
GUUUAGCAAUAUUACGGUGU | -1.95 ± 0.14 | -1.38 ± 0.13
GUUUAGCAAUAUUACGUAAU | -1.15 ± 0.1 | 0.127 ± 0.13
GUUUAGCAAUAUUACGUGAG | -0.583 ± 0.062 | -0.124 ± 0.08
GUUUAGCAAUAUUACGUGCG | -0.649 ± 0.11 | -0.5 ± 0.11
GUUUAGCAAUAUUACGUGUC | -0.806 ± 0.17 | -1.76 ± 0.17
GUUUAGCAAUAUUACGUUCA | -0.239 ± 0.15 | -0.156 ± 0.13
UAAAAGCAAUAUUACGAAGG | -2.61 ± 0.21 | -1.6 ± 0.23
UAAAAGCAAUAUUACGACAG | -0.555 ± 0.057 | -0.173 ± 0.074
UAAAAGCAAUAUUACGAGAA | -2.18 ± 0.24 | -0.995 ± 0.16
UAAAAGCAAUAUUACGAGAG | -3.35 ± 0.19 | -1.6 ± 0.13
UAAAAGCAAUAUUACGAGUU | -2.99 ± 0.16 | -1.91 ± 0.14
UAAAAGCAAUAUUACGAUGA | -0.245 ± 0.085 | 0.0881 ± 0.087
UAAAAGCAAUAUUACGAUGG | -0.953 ± 0.087 | -0.592 ± 0.11
UAAAAGCAAUAUUACGCACC | -2.48 ± 0.11 | -1.49 ± 0.12
UAAAAGCAAUAUUACGCACG | -0.983 ± 0.079 | -0.0988 ± 0.1
UAAAAGCAAUAUUACGCAGA | -2.11 ± 0.093 | -1.17 ± 0.086
UAAAAGCAAUAUUACGCGUG | -0.88 ± 0.049 | -0.0179 ± 0.066
UAAAAGCAAUAUUACGCUAA | -1.86 ± 0.14 | -0.863 ± 0.13
UAAAAGCAAUAUUACGCUAC | -3.07 ± 0.24 | –

Sequence | self-splicing fitness (ln) (30 °C) | self-splicing fitness (ln) (37 °C)
UAAAAGCAAUAUUACGGACA | -0.712 ± 0.082 | 0.302 ± 0.11
UAAAAGCAAUAUUACGGCCU | -0.961 ± 0.1 | -0.4 ± 0.12
UAAAAGCAAUAUUACGGGAC | -3.16 ± 0.13 | -2.47 ± 0.19
UAAAAGCAAUAUUACGGGUA | -0.918 ± 0.09 | -0.192 ± 0.095
UAAAAGCAAUAUUACGGUAC | -3.76 ± 0.16 | -1.42 ± 0.16
UAAAAGCAAUAUUACGGUAU | -3.74 ± 0.23 | -1.85 ± 0.21
UAAAAGCAAUAUUACGUACA | -1.05 ± 0.1 | -0.00957 ± 0.14
UAAAAGCAAUAUUACGUUUU | -3.26 ± 0.13 | -2.82 ± 0.16
UAACAGCAAUAUUACGAAGA | -2.48 ± 0.14 | -1.33 ± 0.11
UAACAGCAAUAUUACGACAG | -0.741 ± 0.052 | -0.435 ± 0.073
UAACAGCAAUAUUACGACUG | -0.343 ± 0.077 | 0.429 ± 0.099
UAACAGCAAUAUUACGAGAC | -4.18 ± 0.26 | -2.78 ± 0.29
UAACAGCAAUAUUACGCACA | -0.339 ± 0.069 | 0.114 ± 0.099
UAACAGCAAUAUUACGCACG | -1.17 ± 0.058 | -0.421 ± 0.072
UAACAGCAAUAUUACGCGGA | -2.12 ± 0.11 | 0.0542 ± 0.076
UAACAGCAAUAUUACGCGUG | -0.718 ± 0.041 | 0.173 ± 0.055
UAACAGCAAUAUUACGGCCU | -1.21 ± 0.13 | -0.33 ± 0.15
UAACAGCAAUAUUACGGGCC | -3.47 ± 0.26 | -2.98 ± 0.26
UAACAGCAAUAUUACGGGGU | -4.16 ± 0.14 | -2.2 ± 0.12
UAACAGCAAUAUUACGGGUU | -3.91 ± 0.15 | -3.58 ± 0.19
UAACAGCAAUAUUACGGUUA | -1.59 ± 0.1 | -0.652 ± 0.096
UAACAGCAAUAUUACGUAUA | -1.4 ± 0.062 | -0.86 ± 0.069
UAACAGCAAUAUUACGUCGU | -3.43 ± 0.14 | -2.04 ± 0.12
UAACAGCAAUAUUACGUGCA | -0.792 ± 0.063 | -0.445 ± 0.098
UAACAGCAAUAUUACGUGGC | -4.59 ± 0.29 | -2.56 ± 0.23

Sequence | self-splicing fitness (ln) (30 °C) | self-splicing fitness (ln) (37 °C)
UAACAGCAAUAUUACGUGGG | -4.35 ± 0.15 | -2.75 ± 0.091
UAACAGCAAUAUUACGUUGC | – | -2.84 ± 0.25
UAAGAGCAAUAUUACGAAAA | – | -2.26 ± 0.38
UAAGAGCAAUAUUACGAACA | -2.71 ± 0.42 | -1.26 ± 0.27
UAAGAGCAAUAUUACGAAUU | -3.74 ± 0.43 | -1.84 ± 0.49
UAAGAGCAAUAUUACGCCGU | – | -2.26 ± 0.43
UAAGAGCAAUAUUACGCGAA | -2.74 ± 0.22 | -1.6 ± 0.16
UAAGAGCAAUAUUACGCGAU | -3.86 ± 0.26 | -2.56 ± 0.24
UAAGAGCAAUAUUACGCGGG | -3.49 ± 0.37 | -3.91 ± 0.36
UAAGAGCAAUAUUACGGAAU | -3.52 ± 0.41 | -2.14 ± 0.41
UAAGAGCAAUAUUACGGACU | – | -2.75 ± 0.41
UAAGAGCAAUAUUACGGCAC | – | -1.16 ± 0.48
UAAGAGCAAUAUUACGGCUA | -1.03 ± 0.1 | -0.141 ± 0.11
UAAGAGCAAUAUUACGGGCA | -2.73 ± 0.26 | -1.99 ± 0.24
UAAGAGCAAUAUUACGGGCC | -2.08 ± 0.32 | -0.897 ± 0.3
UAAGAGCAAUAUUACGGGCG | -2.73 ± 0.16 | -2.29 ± 0.19
UAAGAGCAAUAUUACGGUUG | -3.21 ± 0.2 | -1.87 ± 0.18
UAAGAGCAAUAUUACGUGGA | -2.84 ± 0.28 | -2.14 ± 0.3
UAAGAGCAAUAUUACGUGUG | -2.99 ± 0.18 | -1.4 ± 0.14
UAAGAGCAAUAUUACGUUCG | -1.48 ± 0.11 | -0.784 ± 0.14
UAAGAGCAAUAUUACGUUCU | -3.45 ± 0.28 | -1.55 ± 0.19
UAAUAGCAAUAUUACGAAUC | -4.21 ± 0.31 | -2.34 ± 0.39
UAAUAGCAAUAUUACGACGG | -1.51 ± 0.11 | -0.463 ± 0.13
UAAUAGCAAUAUUACGAGAG | – | -2.68 ± 0.3
UAAUAGCAAUAUUACGAGUG | -1.11 ± 0.08 | -0.572 ± 0.09

Sequence | self-splicing fitness (ln) (30 °C) | self-splicing fitness (ln) (37 °C)
UAAUAGCAAUAUUACGCACA | -0.694 ± 0.14 | -0.0269 ± 0.15
UAAUAGCAAUAUUACGCAGU | -3.55 ± 0.37 | -2.1 ± 0.34
UAAUAGCAAUAUUACGCCCU | -1.59 ± 0.4 | -0.36 ± 0.38
UAAUAGCAAUAUUACGCGCG | -0.452 ± 0.11 | -0.333 ± 0.14
UAAUAGCAAUAUUACGCGGC | -2.97 ± 0.36 | -2.34 ± 0.37
UAAUAGCAAUAUUACGCGUA | -1.85 ± 0.14 | -0.713 ± 0.12
UAAUAGCAAUAUUACGCUAU | -2.93 ± 0.19 | -1.85 ± 0.21
UAAUAGCAAUAUUACGCUGG | -1.95 ± 0.14 | -1.85 ± 0.16
UAAUAGCAAUAUUACGCUGU | -3.69 ± 0.28 | -0.659 ± 0.17
UAAUAGCAAUAUUACGGCAC | -2.86 ± 0.22 | -1.48 ± 0.19
UAAUAGCAAUAUUACGGUGC | – | -1.98 ± 0.36
UAAUAGCAAUAUUACGUAAA | -3.19 ± 0.2 | -1.88 ± 0.19
UAAUAGCAAUAUUACGUAUA | -1.82 ± 0.17 | -1.17 ± 0.17
UAAUAGCAAUAUUACGUCCA | -0.695 ± 0.1 | -0.122 ± 0.11
UAAUAGCAAUAUUACGUGAA | -1.38 ± 0.1 | -1.22 ± 0.14
UAAUAGCAAUAUUACGUGGC | -3.76 ± 0.35 | -2.88 ± 0.43
UAAUAGCAAUAUUACGUUAU | -2.86 ± 0.21 | -1.44 ± 0.19
UAAUAGCAAUAUUACGUUGC | -3.64 ± 0.23 | -2.71 ± 0.31
UACAAGCAAUAUUACGAAUC | -3.62 ± 0.17 | -2.7 ± 0.22
UACAAGCAAUAUUACGACCG | -0.233 ± 0.096 | 0.952 ± 0.13
UACAAGCAAUAUUACGACCU | -0.732 ± 0.068 | -0.688 ± 0.086
UACAAGCAAUAUUACGAGAA | -2.1 ± 0.29 | -2.42 ± 0.33
